Laboratory results published in patent publication US20100254972A1.

What was measured:
IL-1R1 = assay: Receptor Binding Assay, inhibition of IL-1 binding to IL-RI
[1] = target: IL-RI-Fc (a fusion of IL-1RI and Fc); assay: phage-displayed dAb; trypsin 10 µg/ml, overnight, room temp; biopanning on 1 nM IL-1RI-Fc
[2] = target: IL-RI-Fc (a fusion of IL-1RI and Fc); assay: phage-displayed dAb; trypsin 100 µg/ml, overnight, room temp; biopanning on 1 nM IL-1RI-Fc
[3] = target: IL-RI-Fc (a fusion of IL-1RI and Fc); assay: phage-displayed dAb; no trypsin, 1 hr, room temp; biopanning on 1 nM IL-1RI-Fc
[4] = target: IL-RI-Fc (a fusion of IL-1RI and Fc); assay: phage-displayed dAb; trypsin 100 µg/ml, 1 hr, room temp; biopanning on 1 nM IL-1RI-Fc
[5] = target: IL-RI-Fc (a fusion of IL-1RI and Fc); assay: phage-displayed dAb; no trypsin, overnight, 37 C; biopanning on 1 nM IL-1RI-Fc
[6] = target: IL-RI-Fc (a fusion of IL-1RI and Fc); assay: phage-displayed dAb; trypsin 100 µg/ml, overnight, 37 C; biopanning on 1 nM IL-1RI-Fc
[7] = target: IL-RI-Fc (a fusion of IL-1RI and Fc); assay: phage-displayed dAb; no trypsin, overnight, room temp; biopanning on 1 nM IL-1RI-Fc
[8] = target: IL-RI-Fc (a fusion of IL-1RI and Fc); assay: phage-displayed dAb; trypsin 10 µg/ml, overnight, 37 C; biopanning on 1 nM IL-1RI-Fc
[9] = target: IL-RI-Fc (a fusion of IL-1RI and Fc); assay: phage-displayed dAb; trypsin 10 µg/ml, 1 hr, room temp; biopanning on 1 nM IL-1RI-Fc

IL-RI-Fc (a fusion of IL-1RI and Fc), sequence (P14778 whole entry, the tested form may be a part): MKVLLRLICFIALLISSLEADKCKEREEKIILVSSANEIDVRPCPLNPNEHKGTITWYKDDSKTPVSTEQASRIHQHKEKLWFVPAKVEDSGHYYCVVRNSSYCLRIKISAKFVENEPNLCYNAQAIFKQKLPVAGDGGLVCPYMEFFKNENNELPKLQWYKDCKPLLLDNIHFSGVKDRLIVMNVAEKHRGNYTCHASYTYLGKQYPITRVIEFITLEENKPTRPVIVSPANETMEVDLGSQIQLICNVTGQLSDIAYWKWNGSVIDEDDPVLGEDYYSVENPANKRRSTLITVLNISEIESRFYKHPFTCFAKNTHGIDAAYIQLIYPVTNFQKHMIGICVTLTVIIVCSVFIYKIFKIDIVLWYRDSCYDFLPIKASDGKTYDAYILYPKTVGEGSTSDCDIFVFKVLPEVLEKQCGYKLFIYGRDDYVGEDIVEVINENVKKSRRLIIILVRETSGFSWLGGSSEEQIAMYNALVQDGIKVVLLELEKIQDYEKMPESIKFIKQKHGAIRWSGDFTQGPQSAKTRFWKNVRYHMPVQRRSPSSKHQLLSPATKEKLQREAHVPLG
IL-1R1, sequence (P14778 whole entry, the tested form may be a part): as above

B1: DOM4-130-54 (protein)
VL: DIQMTQSPSSLSASVGDRVTITCRASQDIYLNLDWYQQKPGKAPKLLINFGSELQSGVPSRFSGSGYGTDFTLTISSLQPEDFATYYCQPSFYFPYTFGQGTKVEIKR
B1 showed an IC50 (IL-1R1) of 0.28 nM, a titre of phage after biopanning [1] of 7.2e+09 and a titre of phage after biopanning [2] of 2.16e+09. It also gave a titre of phage after biopanning [3] of 6.6e+09, a titre of phage after biopanning [4] of 1.8e+10 and a titre of phage after biopanning [5] of 7.2e+09. For the same binder, the titre of phage after biopanning [6] was 2.04e+06, the titre of phage after biopanning [7] was 7.8e+09 and the titre of phage after biopanning [8] was 3.84e+08. The titre of phage after biopanning [9] was 7.2e+09.
